Columns and labels:
[1] = target: Rabbit six-transmembrane epithelial antigen of the prostate 1 (STEAP1) (rabbit)
[2] = target: Rabbit six-transmembrane epithelial antigen of the prostate 1 (STEAP1) (rabbit); test: BLI; STEAP1 immobilised on amine reactive second-generation biosensors (EDC/Sulfo-NHS); b5R at 20, 10, 5, 2.5, 1.3 and 0.6 uM; 30 C, 1000 rpm; 20 mM HEPES pH 7.5, 150 mM NaCl, 0.1% LMNG, 0.1% BSA; KD from equilibrium responses (Req) against [b5R]

rate constant of the B to C conversion (reduction of the heme of 1.5 uM STEAP1 pre-incubated with 1.5 uM b5R after mixing with 10 uM NADH; rapid-scan stopped flow, anaerobic) [1]: 0.13 s^–1 | Kd [2]: 5.9 µM
B1: Mouse cytochrome b5 reductase, soluble form (residues 24-301) (enzyme)
chain: SKVPLKQGRSLMDWIRLTKSGKDLTGLKGGLIEVTEEELKKHNKKEDCWICIRGFVYNVSPYMEYHPGGEDELMRAAGADGTDLFNEVHRWVNYESMLKECLVGRMAVKPAVPKDCHEGKRVLNGMLPKSQMSDTLPRDVTDTLPREDLSSPSYDWFQTESSVTIVVYTKQKNISLDSVIVDLQDDSLRAEAVIKDHSYLVHVGLSHEVQENFSVRVIENVGKIEIVLQKKESVSWQCLGDHLEKHDSFIPKKDTGLYYRRCQLISKEDVTHDTRLFC
